Experimental data from JP2000236884A.

Biological target: ヒトIL−18 (human interleukin-18, polypeptide having the amino acid sequence of SEQ ID NO 21) (human), Q14116
Assay: cell-based or functional assay
Settings: scale: fold molar concentration against #125-2HmAb

molar concentration needed for the same IL-18 neutralisation as #125-2HmAb (IFN-γ induction in KG-1 cells): 2
B1: scFv peptide with His6 of Example 2-2, encoded by pEscFv#125-2H.HT (SEQ ID NO 10) (scFv)
scFv: EIQLQQSGPELVKPGASVKVSCKASGYSFTDYFIYWVKQSHGKSLEWIGDIDPYNGDTSYNQKFRDKATLTVDQSSTTAFMHLNSLTSEDSAVYFCARGLRFWGQGTLVTVSAGGGGGGSGGGGSGGGGSDIQMTQSPSSLSASLGERVSLTCRASQDIGSKLYWLQQEPDGTFKRLIYATSSLDSGVPKRFSGSRSGSDYSLTISSLESEDFVDYYCLQYASSPYTFGGGTKLAIKHHHHHH
